Data from US20230203200A1.

Assays:
[1] = target: CD3 (CD3ε/δ-complex) on T cells (human) (UniProt P07766); experiment: flow cytometry on Jurkat cells (CD3+, TCRab+), bound TCER stained with a PE-labeled secondary reagent
[2] = target: CD3 (CD3ε/δ-complex) on T cells (human) (UniProt P07766); experiment: flow cytometry on Jurkat cells (CD3+ and TCRab+), PE-labeled secondary reagent
[3] = target: TCR alpha/beta on Jurkat cells (human); experiment: as above

Chain of UniProt P07766 (P07766 23-207, stated change not applied, chain 1 of 2): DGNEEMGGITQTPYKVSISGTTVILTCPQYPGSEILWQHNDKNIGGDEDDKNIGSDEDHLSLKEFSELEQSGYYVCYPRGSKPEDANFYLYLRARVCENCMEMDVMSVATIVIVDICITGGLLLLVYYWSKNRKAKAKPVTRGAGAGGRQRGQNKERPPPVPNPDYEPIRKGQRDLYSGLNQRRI
Chain of UniProt P07766 (P04234 22-171, stated change not applied, chain 2 of 2, further chain): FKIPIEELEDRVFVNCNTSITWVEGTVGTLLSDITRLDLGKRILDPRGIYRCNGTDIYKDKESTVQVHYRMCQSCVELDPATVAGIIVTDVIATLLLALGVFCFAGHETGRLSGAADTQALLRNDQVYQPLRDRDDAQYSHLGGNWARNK

B1: PRAME-004 targeting TCER® molecule with the recruiting domains of humanized UCHT1(V17) (protein)
chain 1: QKEVEQNSGPLSVPEGAIASLNCTYSDRGSQSFFWYRQYSGKSPELIMSIYSNGDKEDGRFTAQLNKASQYVSLLIRDSQPSDSATYLCAAVIDNDQGGILTFGTGTRLTIIPNIQNGGGSGGGGDIQMTQSPSSLSASVGDRVTITCRASQDIRNYLNWYQQKPGKAPKLLIYYTSRLHSGVPSRFSGSGSGTDYTLTISSLQPEDIATYFCQQGQTLPWTFGQGTKVEIKEPKSSDKTHTCPPCPAPPVAGPSVFLFPPKPKDTLMISRTPEVTCVVVDVSHEDPEVKFNWYVDGVEVHNAKTKPREEQYQSTYRVVSVLTVLHQDWLNGKEYKCKVSNKALPASIEKTISKAKGQPREPQVYTLPPCRDELTKNQVSLWCLVKGFYPSDIAVEWESNGQPENNYKTTPPVLDSDGSFFLYSKLTVDKSRWQQGNVFSCSVMHEALHNHYTQKSLSLSPGK
chain 2: EVQLVQSGAEVKKPGASVKVSCKASGYSFTGYTMNWVRQAPGQGLEWMGLINPYKGVSTYAQKFQDRVTLTVDKSTSTAYMELSSLRSEDTAVYYCARSGYYGDSDWYFDVWGQGTLVTVSSGGGSGGGGKAGVTQTPRYLIKTRGQQVTLSCSPIPGHRAVSWYQQTPGQGLQFLFEYVHGEERNKGNFPGRFSGRQFSNSSSEMNISNLELGDSALYLCASSPWDSPNVQYFGPGTRLTVTEDLKNEPKSSDKTHTCPPCPAPPVAGPSVFLFPPKPKDTLMISRTPEVTCVVVDVSHEDPEVKFNWYVDGVEVHNAKTKPREEQYQSTYRVVSVLTVLHQDWLNGKEYKCKVSNKALPASIEKTISKAKGQPREPQVCTLPPSRDELTKNQVSLSCAVKGFYPSDIAVEWESNGQPENNYKTTPPVLDSDGSFFLVSKLTVDKSRWQQGNVFSCSVMHEALHNHYTQKSLSLSPGK
- EC50 (read off the curve) [1]: 2 nM
- EC50 [2]: 2 to 3 nM

B2: PRAME-004 targeting TCER® molecule with the recruiting domains of humanized BMA031(V10) (protein)
chain 1: QIQMTQSPSSLSASVGDRVTITCSATSSVSYMHWYQQKPGKAPKRWIYDTSKLASGVPSRFSGSGSGTDYTLTISSLQPEDAATYYCQQWSSNPLTFGGGTKVEIKGGGSGGGGKAGVTQTPRYLIKTRGQQVTLSCSPIPGHRSVSWYRQTPGQGLQFLFEYVHGEERNKGNFPGRFSGRQFSNSSSEMNISNLELGDSALYLCASSPWDSPNVQYFGPGTRLTVTEDLKNEPKSSDKTHTCPPCPAPPVAGPSVFLFPPKPKDTLMISRTPEVTCVVVDVSHEDPEVKFNWYVDGVEVHNAKTKPREEQYQSTYRVVSVLTVLHQDWLNGKEYKCKVSNKALPASIEKTISKAKGQPREPQVYTLPPCRDELTKNQVSLWCLVKGFYPSDIAVEWESNGQPENNYKTTPPVLDSDGSFFLYSKLTVDKSRWQQGNVFSCSVMHEALHNHYTQKSLSLSP
chain 2: QKEVEQNSGPLSVPEGAIASLNCTYSDRGSQSFFWYRQYSGKSPELIMSIYSNGDKKDGRFTAQLNKASQYVSLLIRDSQPSDSATYLCAAVIDNDQGGILTFGTGTRLTIIPNIQNGGGSGGGGEVQLVQSGAEVKKPGASVKVSCKASGYKFTSYVMHWVRQAPGQGLEWMGYINPYNDVTKYAEKFQGRVTLTSDTSTSTAYMELSSLRSEDTAVHYCARGSYYDYDGFVYWGQGTLVTVSSEPKSSDKTHTCPPCPAPPVAGPSVFLFPPKPKDTLMISRTPEVTCVVVDVSHEDPEVKFNWYVDGVEVHNAKTKPREEQYQSTYRVVSVLTVLHQDWLNGKEYKCKVSNKALPASIEKTISKAKGQPREPQVCTLPPSRDELTKNQVSLSCAVKGFYPSDIAVEWESNGQPENNYKTTPPVLDSDGSFFLVSKLTVDKSRWQQGNVFSCSVMHEALHNHYTQKSLSLSP
- fold weaker binding than the UCHT1-based TCER®-molecule [3]: 50 to 100 fold
